# Source: PMC9799976
# B1: N-DCX with a C-terminal ybbR-tag (N-DCX-ybbR) (domain or fragment)
# chain: MELDFGHFDERDKTSRNMRGSRMNGLPSPTHSAHCSFYRTRTLQALSNEKKAKKVRFYRNGDRYFKGIVYAVSSDRFRSFDALLADLTRSLSDNINLPQGVRYIYTIDGSRKIGSMDELEEGESYVCSSDNFFKKVEYTKNVNPNWSVNVKTSANMKAPQSLASSNSAQARENKDFVRPKLVTIIRSGVKPRKAVRVLLNKKTAHSFEQVLTDITEAIKLETGVVKKLYTLDGKQVTCLHDFFGDDDVFIACGPEKFRYAQDDFSLDENE
# modifications: CoA-CF488 or CoA-JF549 on the ybbR-tag
# B2: full-length DCX with a C-terminal ybbR-tag (DCX-ybbR) (natural protein)
# chain: MELDFGHFDERDKTSRNMRGSRMNGLPSPTHSAHCSFYRTRTLQALSNEKKAKKVRFYRNGDRYFKGIVYAVSSDRFRSFDALLADLTRSLSDNINLPQGVRYIYTIDGSRKIGSMDELEEGESYVCSSDNFFKKVEYTKNVNPNWSVNVKTSANMKAPQSLASSNSAQARENKDFVRPKLVTIIRSGVKPRKAVRVLLNKKTAHSFEQVLTDITEAIKLETGVVKKLYTLDGKQVTCLHDFFGDDDVFIACGPEKFRYAQDDFSLDENECRVMKGNPSATAGPKASPTPQKTSAKSPGPMRRSKSPADSGNDQDANGTSSSQLSTPKSKQSPISTPTSPGSLRKHKDLYLPLSLDDSDSLGDSM
# modifications: CoA-CF488 or CoA-JF549 on the ybbR-tag
# B3: mouse JIP3 (amino acids 1-240; cloned as 3-240) with C-terminal HaloTag (domain or fragment)
# chain: EIQMDEGGGVVVYQDDYCSGSVMSERVSGLAGSIYREFERLIHCYDEEVVKELMPLVVNVLENLDSVLSENQEHEVELELLREDNEQLLTQYEREKALRKQAEEKFIEFEDALEQEKKELQIQVEHYEFQTRQLELKAKNYADQISRLEERESEMKKEYNALHQRHTEMIQTYVEHIERSKMQQVGGSGQTESSLPGRSRKERPTSLNVFPLADGMVRAQMGGKLVPAGDHWHLSDLG
# modifications: Halo-JF646 on the HaloTag
# Legend:
# [1] = target: full-length human dynein complex (heavy chain with SNAP-tag, IC, LIC, Tctex, LC8, Robl) (human) (UniProt Q14204)
# [2] = target: tail-truncated single-headed human dynein (amino acids 1320-4646 of DYNC1H1), N-terminal GFP (human) (UniProt Q14204)
# tail-truncated single-headed human dynein (amino acids 1320-4646 of DYNC1H1), N-terminal GFP (human), sequence (Q14204 1320-4646): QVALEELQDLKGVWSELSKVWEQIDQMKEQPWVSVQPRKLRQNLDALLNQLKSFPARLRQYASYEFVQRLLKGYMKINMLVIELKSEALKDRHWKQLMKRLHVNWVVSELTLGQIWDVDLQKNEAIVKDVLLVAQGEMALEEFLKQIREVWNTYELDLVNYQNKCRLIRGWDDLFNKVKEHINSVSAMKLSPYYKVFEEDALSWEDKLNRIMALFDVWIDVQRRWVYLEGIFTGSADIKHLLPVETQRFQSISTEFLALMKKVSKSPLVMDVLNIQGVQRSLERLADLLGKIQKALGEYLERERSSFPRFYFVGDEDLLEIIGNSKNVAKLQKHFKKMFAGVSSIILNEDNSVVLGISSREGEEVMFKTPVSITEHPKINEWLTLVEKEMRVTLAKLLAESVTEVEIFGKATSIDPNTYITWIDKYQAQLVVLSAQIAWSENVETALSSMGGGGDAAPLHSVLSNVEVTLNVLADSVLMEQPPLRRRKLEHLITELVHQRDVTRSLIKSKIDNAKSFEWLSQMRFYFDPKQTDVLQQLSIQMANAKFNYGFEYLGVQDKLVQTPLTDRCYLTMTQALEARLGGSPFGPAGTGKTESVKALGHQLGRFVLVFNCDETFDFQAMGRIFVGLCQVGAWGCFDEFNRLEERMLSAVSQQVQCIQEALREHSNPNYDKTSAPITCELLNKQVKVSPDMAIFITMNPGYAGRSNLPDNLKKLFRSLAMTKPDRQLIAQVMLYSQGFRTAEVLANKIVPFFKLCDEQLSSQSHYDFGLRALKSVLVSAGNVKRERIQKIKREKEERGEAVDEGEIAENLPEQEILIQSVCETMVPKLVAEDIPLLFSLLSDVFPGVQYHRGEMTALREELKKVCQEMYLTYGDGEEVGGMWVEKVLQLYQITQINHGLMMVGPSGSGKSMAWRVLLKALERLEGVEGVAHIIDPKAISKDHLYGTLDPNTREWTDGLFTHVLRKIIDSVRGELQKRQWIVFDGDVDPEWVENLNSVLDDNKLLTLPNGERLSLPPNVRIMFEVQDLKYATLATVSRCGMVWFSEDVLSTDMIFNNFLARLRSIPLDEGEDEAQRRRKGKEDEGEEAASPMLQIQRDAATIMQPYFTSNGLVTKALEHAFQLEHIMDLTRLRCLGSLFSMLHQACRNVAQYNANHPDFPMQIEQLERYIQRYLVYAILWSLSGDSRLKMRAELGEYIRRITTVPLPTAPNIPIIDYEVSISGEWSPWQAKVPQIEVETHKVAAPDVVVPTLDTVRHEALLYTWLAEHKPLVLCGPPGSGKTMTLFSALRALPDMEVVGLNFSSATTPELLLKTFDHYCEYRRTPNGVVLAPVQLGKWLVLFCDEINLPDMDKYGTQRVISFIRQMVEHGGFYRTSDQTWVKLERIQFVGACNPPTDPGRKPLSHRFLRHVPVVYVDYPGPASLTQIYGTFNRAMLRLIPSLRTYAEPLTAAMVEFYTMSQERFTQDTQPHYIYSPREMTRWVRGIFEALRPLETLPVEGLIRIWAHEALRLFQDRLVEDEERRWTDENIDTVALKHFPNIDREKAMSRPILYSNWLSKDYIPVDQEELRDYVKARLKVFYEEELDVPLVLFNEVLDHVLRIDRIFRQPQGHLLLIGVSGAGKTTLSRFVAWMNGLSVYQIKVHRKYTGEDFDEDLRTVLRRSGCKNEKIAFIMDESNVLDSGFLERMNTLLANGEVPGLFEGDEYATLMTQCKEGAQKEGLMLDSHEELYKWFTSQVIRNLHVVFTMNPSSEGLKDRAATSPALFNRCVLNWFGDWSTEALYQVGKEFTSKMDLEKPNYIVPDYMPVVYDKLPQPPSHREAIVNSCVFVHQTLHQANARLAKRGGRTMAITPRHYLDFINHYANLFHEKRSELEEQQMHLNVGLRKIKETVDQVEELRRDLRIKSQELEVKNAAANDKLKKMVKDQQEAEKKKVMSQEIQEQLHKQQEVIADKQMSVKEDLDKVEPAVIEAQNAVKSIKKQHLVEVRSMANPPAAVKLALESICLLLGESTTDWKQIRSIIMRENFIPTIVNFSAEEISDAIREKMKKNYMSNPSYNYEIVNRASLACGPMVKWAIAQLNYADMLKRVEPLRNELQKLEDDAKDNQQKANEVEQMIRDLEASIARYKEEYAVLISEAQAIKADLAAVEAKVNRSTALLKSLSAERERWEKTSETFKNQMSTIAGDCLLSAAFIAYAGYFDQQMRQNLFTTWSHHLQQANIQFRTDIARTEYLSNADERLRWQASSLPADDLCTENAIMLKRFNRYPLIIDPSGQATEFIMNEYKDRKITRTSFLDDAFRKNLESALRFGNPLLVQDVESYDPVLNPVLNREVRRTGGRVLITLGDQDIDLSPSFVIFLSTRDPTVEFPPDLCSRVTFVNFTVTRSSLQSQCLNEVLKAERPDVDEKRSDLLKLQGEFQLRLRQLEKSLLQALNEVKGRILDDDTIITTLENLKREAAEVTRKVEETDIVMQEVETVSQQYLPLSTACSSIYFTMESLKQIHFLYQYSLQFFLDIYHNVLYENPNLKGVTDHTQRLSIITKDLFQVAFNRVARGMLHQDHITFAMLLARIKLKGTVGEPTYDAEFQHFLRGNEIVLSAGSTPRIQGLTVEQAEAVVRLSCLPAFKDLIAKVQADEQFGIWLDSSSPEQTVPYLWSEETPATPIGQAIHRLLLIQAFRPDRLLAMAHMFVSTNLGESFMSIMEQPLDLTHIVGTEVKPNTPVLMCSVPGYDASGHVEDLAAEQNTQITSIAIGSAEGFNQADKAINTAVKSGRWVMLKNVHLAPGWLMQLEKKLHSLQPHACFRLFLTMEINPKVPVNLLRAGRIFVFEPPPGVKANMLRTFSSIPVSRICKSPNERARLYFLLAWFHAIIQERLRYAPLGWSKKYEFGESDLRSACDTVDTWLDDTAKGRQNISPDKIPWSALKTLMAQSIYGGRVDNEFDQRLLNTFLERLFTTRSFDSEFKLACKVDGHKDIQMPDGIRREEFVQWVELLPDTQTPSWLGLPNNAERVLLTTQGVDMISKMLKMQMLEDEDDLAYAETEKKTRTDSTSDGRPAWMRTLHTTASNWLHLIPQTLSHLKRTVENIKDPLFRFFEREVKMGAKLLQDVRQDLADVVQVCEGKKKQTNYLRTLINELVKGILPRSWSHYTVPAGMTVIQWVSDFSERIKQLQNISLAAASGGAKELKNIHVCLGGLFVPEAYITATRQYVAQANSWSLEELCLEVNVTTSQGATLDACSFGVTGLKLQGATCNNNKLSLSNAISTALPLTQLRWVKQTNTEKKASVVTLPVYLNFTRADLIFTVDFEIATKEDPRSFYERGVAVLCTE
# [3] = target: full-length human dynein complex (heavy chain with SNAP-tag, IC, LIC, Tctex, LC8, Robl) (human) (UniProt Q14204); experiment: single-molecule TIRF microscopy; 10 nM JIP3 (Halo-JF646) on surface-attached MTs, without or with 1 nM dynein; dwell time of JIP3 on MT-bound dynein
binder,measurement,setting,value
B1,"velocity of DDJ motor complexes on MTs with 10 nM N-DCX (DDJ only: 0.76 [0.65, 0.89] µm/s)",[1],0.54 µm/s
same,"velocity of MT gliding powered by surface-bound single-headed dynein with 10 nM N-DCX, not significantly changed (without N-DCX: 0.59 [0.56, 0.63] µm/s)",[2],0.58 µm/s
B2,"velocity of DDJ motor complexes on MTs with 10 nM DCX (DDJ only: 0.76 [0.65, 0.89] µm/s)",[1],0.62 µm/s
B3,dwell time of JIP3 on dynein,[3],0.42 s
